In series [1] the target is PDGF-BB (platelet-derived growth factor BB) (UniProt P01127 82-190). As to the kind of experiment: bead-based fluorescence; PDGF-BB and ApoE: PBS pH 7.4, 1 mM MgCl2, 0.025% Tween 20; thrombin: 50 mM Tris pH 7.5, 100 mM NaCl, 1 mM MgCl2, 5 mM KCl, 1 mM CaCl2, 0.025% Tween 20; 1 h, room temperature. The note with it: protein: commercial; chain copies: 2; label: 5'-FAM.
Series [2] deals with T1, Bovine serum albumin (Bos taurus (Bovine), UniProt P02769 25-607). The series can be described thus: pulldown; 50 mM Tris pH 7.5, 100 mM NaCl, 1 mM MgCl2, 5 mM KCl, 1 mM CaCl2, 0.025% Tween 20, RT. The note with it: label: 5'-Alexa Fluor 488.
T1 sequence (P02769 25-607): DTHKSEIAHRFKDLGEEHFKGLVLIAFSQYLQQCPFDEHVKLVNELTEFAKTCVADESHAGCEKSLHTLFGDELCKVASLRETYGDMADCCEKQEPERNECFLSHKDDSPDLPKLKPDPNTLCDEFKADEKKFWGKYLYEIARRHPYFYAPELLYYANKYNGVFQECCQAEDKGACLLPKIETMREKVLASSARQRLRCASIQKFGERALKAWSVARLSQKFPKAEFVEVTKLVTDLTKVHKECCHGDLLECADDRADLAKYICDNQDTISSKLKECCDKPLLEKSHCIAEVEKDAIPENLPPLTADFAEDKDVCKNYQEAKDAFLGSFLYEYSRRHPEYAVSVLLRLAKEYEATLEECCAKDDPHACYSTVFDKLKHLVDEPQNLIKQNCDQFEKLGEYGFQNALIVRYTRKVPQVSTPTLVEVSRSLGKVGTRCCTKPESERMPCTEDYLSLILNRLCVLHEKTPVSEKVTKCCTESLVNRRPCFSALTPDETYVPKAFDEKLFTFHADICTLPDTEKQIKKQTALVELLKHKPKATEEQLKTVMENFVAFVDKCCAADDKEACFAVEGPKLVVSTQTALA
Series [3] deals with T1, Bovine serum albumin. The series can be described thus: pulldown; PBS pH 7.4, 1 mM MgCl2, 0.025% Tween 20, RT. The following applies: label: 5'-Alexa Fluor 488.
The next series addresses thrombin (UniProt P00734;P00734 315-363;364-622). The series can be described thus: bead-based fluorescence; PDGF-BB and ApoE: PBS pH 7.4, 1 mM MgCl2, 0.025% Tween 20; thrombin: 50 mM Tris pH 7.5, 100 mM NaCl, 1 mM MgCl2, 5 mM KCl, 1 mM CaCl2, 0.025% Tween 20; 1 h, roo.

This is an account of results in PMC3215713, “Probing the Limits of Aptamer Affinity with a Microfluidic SELEX Platform”.

Chain of PDGF-BB (platelet-derived growth factor BB) (P01127 82-190): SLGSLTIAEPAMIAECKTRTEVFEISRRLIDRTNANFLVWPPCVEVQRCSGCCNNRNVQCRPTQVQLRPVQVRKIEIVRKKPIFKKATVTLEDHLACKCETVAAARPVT

B1: Green PDGF aptamer 36t (ssDNA)
DNA: CACAGGCTACGGCACGTAGAGCATCACCATGATCCTGTG
As a reminder, the Kd is the equilibrium constant for the complex coming apart. Low readings indicate higher affinity, high ones lower affinity. On to B1, for which the Kd in series [1] came to 0.12 nM.

B2: Thr-08 (ssDNA)
DNA: AGCAGCACAGAGGTCAGATGCAGCGCTAGGGCTTTTAGCGTAATGGGTAGGGTGGTGCGGTGCAGATATCGGAATTGGTGCCTATGCGTGCTACCGTGAA
Regarding B2, the binding result in the series with Bovine serum albumin [2] is recorded as “no binding”.

B3: PDGF-09 (ssDNA)
DNA: AGCAGCACAGAGGTCAGATGGAATCATGATCCCCCATGACCTGGGGGCGTTACTGGCGAGCATCATGAGAGATCGTGCGACCTATGCGTGCTACCGTGAA
With B3, in the series with Bovine serum albumin [3], the binding result was “no binding”.

B4: Bock thrombin aptamer (consensus 15-mer) (ssDNA)
DNA: GGTTGGTGTGGTTGG
Molecule B4 gave a dissociation constant (Kd) in the series with thrombin of 1.2 nM.

B5: ApoE-06 (Ahmad 2011) (ssDNA)
DNA: AGCAGCACAGAGGTCAGATGACTAGCTACGGGGTGGGTGGGCGGTGTCAGTTTGTTTATTGGTGCTATACATCCTCTATACCTATGCGTGCTACCGTGAA
Take B5: the binding result with Bovine serum albumin [3] is “no binding”.

B6: Tasset thrombin aptamer 60-18[29] (ssDNA)
DNA: AGTCCGTGGTAGGGCAGGTTGGGGTGACT
B6 returned an equilibrium dissociation constant (Kd) with thrombin of 11.9 nM.
